Where no end group is shown, it is not given here. [ ]: non-standard residue; d: D form. pT = C[C@@H](OP(=O)(O)O)[C@H](N)C(=O)O; pS = N[C@@H](COP(=O)(O)O)C(=O)O

T1: 14-3-3γ (UniProt P61981 1-247)
T1 construct: 14-3-3 protein, gamma isoform; also called 14-3-3 protein
T1 sequence (looked up): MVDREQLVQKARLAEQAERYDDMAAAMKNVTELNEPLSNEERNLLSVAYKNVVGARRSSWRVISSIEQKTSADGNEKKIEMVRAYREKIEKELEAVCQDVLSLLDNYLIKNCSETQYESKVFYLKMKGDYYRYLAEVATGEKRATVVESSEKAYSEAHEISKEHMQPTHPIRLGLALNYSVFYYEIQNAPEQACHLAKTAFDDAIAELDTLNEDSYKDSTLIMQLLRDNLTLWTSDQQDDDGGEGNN

T2: full-length human 14-3-3β protein with a N-terminal His6 tag (human, UniProt P31946 1-246)
T2 construct: 14-3-3 protein beta/alpha, human, full length; Treated as a dimer in the thermodynamic model (Pp = 14-3-3 dimer); also called Pp (14-3-3 dimer); source: E. coli BL21(DE3), pPROEX HTb, purified (Ni-NTA, dialysis)
T2 sequence (looked up): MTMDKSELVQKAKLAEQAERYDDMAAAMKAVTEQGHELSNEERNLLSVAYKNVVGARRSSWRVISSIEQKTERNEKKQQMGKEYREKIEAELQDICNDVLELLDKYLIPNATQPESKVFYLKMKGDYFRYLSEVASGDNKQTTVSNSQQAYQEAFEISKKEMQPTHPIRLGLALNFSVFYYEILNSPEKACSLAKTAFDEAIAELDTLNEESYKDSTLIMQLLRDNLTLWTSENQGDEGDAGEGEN

B1: macrocycle F2 (peptide)
chain: SFSXFKXK
modifications: not fully specified; fluorescein isothiocyanate (FITC) on the side chain of the first lysine; β-alanine after it; phosphoserine; triazole from azido phenylalanine (replacing Nph(+1)) cyclised to the backbone amide nitrogen between Lys(+5) and Nph(+4), linker x = 2; β-homoSer(+2); β-Ala(+3); 4-nitrophenylalanine Nph(+4)
B2: macrocycle F3 (peptide)
chain: SFSXFKXK
modifications: not fully specified; fluorescein isothiocyanate (FITC) on the side chain of the first lysine; β-alanine after it; phosphoserine; triazole from azido phenylalanine (replacing Nph(+1)) cyclised to the backbone amide nitrogen between Lys(+5) and Nph(+4), linker x = 3; β-homoSer(+2); β-Ala(+3); 4-nitrophenylalanine Nph(+4)
B3: macrocycle F4 (peptide)
chain: SFSXFKXK
modifications: not fully specified; fluorescein isothiocyanate (FITC) on the side chain of the first lysine; β-alanine after it; phosphoserine; triazole from azido phenylalanine (replacing Nph(+1)) cyclised to the backbone amide nitrogen between Lys(+5) and Nph(+4), linker x = 4; β-homoSer(+2); β-Ala(+3); 4-nitrophenylalanine Nph(+4)
B4: ERα client peptide (peptide)
peptide: Ac-EGFPA[pT]V-OH
SMILES: CC(=O)N[C@@H](CCC(=O)O)C(=O)NCC(=O)N[C@@H](Cc1ccccc1)C(=O)N1CCC[C@H]1C(=O)N[C@@H](C)C(=O)N[C@H](C(=O)N[C@H](C(=O)O)C(C)C)[C@@H](C)OP(=O)(O)O
notes: ERα (estrogen receptor alpha), 14-3-3 client peptide; source: synthetic peptide, bought: GenScript Biotech Corp
B5: NOTCH4 client peptide (peptide)
peptide: Ac-RPRTQ[pS]APHRRRPP-NH2
SMILES: CC(=O)N[C@@H](CCCNC(=N)N)C(=O)N1CCC[C@H]1C(=O)N[C@@H](CCCNC(=N)N)C(=O)N[C@H](C(=O)N[C@@H](CCC(N)=O)C(=O)N[C@@H](COP(=O)(O)O)C(=O)N[C@@H](C)C(=O)N1CCC[C@H]1C(=O)N[C@@H](Cc1c[nH]cn1)C(=O)N[C@@H](CCCNC(=N)N)C(=O)N[C@@H](CCCNC(=N)N)C(=O)N[C@@H](CCCNC(=N)N)C(=O)N1CCC[C@H]1C(=O)N1CCC[C@H]1C(N)=O)[C@@H](C)O
notes: NOTCH4, 14-3-3 client peptide; source: synthetic peptide, bought: GenScript Biotech Corp
B6: acetylated ChREBP peptide (peptide)
peptide: Ac-RDKIRLNNAIWRAWYIQYVKRRKSPV-NH2
notes: also called S (in the model); source: synthetic peptide, bought: GenScript Biotech Corp
B7: USP8 client peptide (peptide)
peptide: Ac-KLKRSY[pS]SPDITQ-NH2
SMILES: CC[C@H](C)[C@H](NC(=O)[C@H](CC(=O)O)NC(=O)[C@@H]1CCCN1C(=O)[C@H](CO)NC(=O)[C@H](COP(=O)(O)O)NC(=O)[C@H](Cc1ccc(O)cc1)NC(=O)[C@H](CO)NC(=O)[C@H](CCCNC(=N)N)NC(=O)[C@H](CCCCN)NC(=O)[C@H](CC(C)C)NC(=O)[C@H](CCCCN)NC(C)=O)C(=O)N[C@H](C(=O)N[C@@H](CCC(N)=O)C(N)=O)[C@@H](C)O
notes: USP8, 14-3-3 client peptide; source: synthetic peptide, bought: GenScript Biotech Corp
B8: ERRγ client peptide (peptide)
peptide: Ac-KRRRK[pS]CQA-NH2
SMILES: CC(=O)N[C@@H](CCCCN)C(=O)N[C@@H](CCCNC(=N)N)C(=O)N[C@@H](CCCNC(=N)N)C(=O)N[C@@H](CCCNC(=N)N)C(=O)N[C@@H](CCCCN)C(=O)N[C@@H](COP(=O)(O)O)C(=O)N[C@@H](CS)C(=O)N[C@@H](CCC(N)=O)C(=O)N[C@@H](C)C(N)=O
notes: ERRγ (estrogen-related receptor gamma), 14-3-3 client peptide; source: synthetic peptide, bought: GenScript Biotech Corp
B9: ExoS client peptide (peptide)
peptide: Ac-QGLLDALDLAS-NH2
notes: ExoS (exoenzyme S), 14-3-3 client peptide; source: synthetic peptide, bought: GenScript Biotech Corp
B10: B-RAF client peptide (peptide)
peptide: Ac-RDRSS[pS]APNVH-NH2
SMILES: CC(=O)N[C@@H](CCCNC(=N)N)C(=O)N[C@@H](CC(=O)O)C(=O)N[C@@H](CCCNC(=N)N)C(=O)N[C@@H](CO)C(=O)N[C@@H](CO)C(=O)N[C@@H](COP(=O)(O)O)C(=O)N[C@@H](C)C(=O)N1CCC[C@H]1C(=O)N[C@@H](CC(N)=O)C(=O)N[C@H](C(=O)N[C@@H](Cc1c[nH]cn1)C(N)=O)C(C)C
notes: B-RAF, 14-3-3 client peptide; source: synthetic peptide, bought: GenScript Biotech Corp
B11: TAZ client peptide (peptide)
peptide: Ac-HVRSH[pS]SPASLQLG
notes: TAZ, 14-3-3 client peptide; No C-terminal group is printed for this peptide; source: synthetic peptide, bought: GenScript Biotech Corp
B12: fluorescently labeled macrocycle F4 (peptide)
chain: SFSXFKXK
modifications: not fully specified; phosphoserine; Phe(+1) triazole cyclised to the backbone amide nitrogen of Lys(+5) through a linker x = 4 (from 5-hexyn-1-ol); β-homoSer(+2); β-Ala(+3); Nph(+4); β-Ala and a lysine whose side chain carries fluorescein isothiocyanate (FITC) after Lys(+5)

The first experiment has as its target T1, 14-3-3γ. Kind of experiment: fluorescence polarisation; fluorescence anisotropy; 14-3-3γ titrated to FITC-labeled macrocycles F1-F4 and pepD (10 nM); mean ± SD, n = 3. To be noted: both partners purified.
B1: the Kd turned out to be 5.7 µM.

Consider B2, for which binding was characterised by a dissociation constant (Kd) of 0.23 µM. This Kd lies about 25-fold lower than the previous one.

Molecule B3 came in with a dissociation constant (Kd) of 2.1 µM.

The next experiment has as its target T2, full-length human 14-3-3β protein with …. Kind of experiment: fluorescence polarisation; selectivity assay by fluorescence anisotropy: acetylated 14-3-3 client peptides titrated (from 100 μM, 2-fold) to 10 nM FITC-labeled macrocycle F2 or F4 bound to 14-3-3β (7 μM for 2, 2 μM for 4); 10 mM HEPES pH 7.4, 150 mM NaCl, 0.1% Tween20, 0.1% BSA; room temperature. To be noted: both partners purified.
For the molecule B4, the binding result is “binds”.

On to B5, for which the binding result is “binds”.

In the case of B6, the binding result was “binds”.

In the case of B7, the binding result is “binds”.

Consider B8, for which the binding result was “binds”.

For the molecule B9, the binding result was “binds”.

B10: the binding result was “binds”.

Turning to B11, the binding result is given as “binds”.

The next experiment has the same target. Kind of experiment: fluorescence polarisation; 2D fluorescence anisotropy titration, replicate 1: 14-3-3β titrated (from 250 µM) to FITC-labeled macrocycle or pepD with varying ChREBP peptide starting at 20 μM; KD I (binary affinity of the macrocycle for a site of the 14-3-3 dimer) fitted by the thermodynamic cooperativity model with KD II fixed at 1.5 µM; 10 mM HEPES pH 7.4, 150 mM NaCl, 0.1% Tween20, 0.1% BSA; room temperature. To be noted: both partners purified. For orientation: Fluorescence polarisation rises when a labelled molecule tumbles more slowly, as on binding a larger partner.
As for B12, the Kd worked out at 5 µM.

In general, Kd refers to the equilibrium constant for the complex coming apart.

Source of the values: paper PMC12865133, “Macrocyclic Molecular Glues for the 14‐3‐3/ChREBP Interaction: Affinity and Cooperativity in an Inverse Relationship” (Angewandte Chemie (International Ed. in English), 2025).
